We go through 2 substances from patent US7052692.

Data set [1] has as its target D-sequence-binding protein (D-BP) (human). Description: cell-based or functional assay.
The test system of data set [2] is D-sequence-binding protein (D-BP), dephosphorylated form.

As to “human epidermal growth factor receptor (EGF-R) (from UniProt P00533 25-1210)”, in data set [1], the Ratio of dephosphorylated/phosphorylated ssD-BP, EGF-R-transfected 293 clone 293-4 turned out to be 0.31; the Ratio of dephosphorylated/phosphorylated ssD-BP, EGF-R-transfected 293 clone 293-5 was found to be 0.45; the Ratio of dephosphorylated/phosphorylated ssD-BP, EGF-R-transfected 293 clone 293-6 turned out to be 0.36; the Ratio of dephosphorylated/phosphorylated ssD-BP, EGF-R-transfected 293 clone 293-8 was found to be 0.51. Besides, in data set [1], the Ratio of dephosphorylated/phosphorylated ssD-BP, EGF-R-transfected 293 clone 293-12 was 0.64; the Ratio of dephosphorylated/phosphorylated ssD-BP, control untransfected 293 cells was determined as 3.5; the Ratio of dephosphorylated/phosphorylated ssD-BPs, average of the EGF-R-transfected 293 cell clones was determined as 0.45.
purified EGF-R PTK (CalBiochem): the “in vitro phosphorylation assay followed by EMSA with the D(-) probe” value in data set [2] is on record as “incubation of the ssD-BP with the purified EGF-R PTK resulted in phosphorylation of this protein whereas incubation in the presence of ATP alone had no effect”.
